Laboratory results published in paper PMC7214386, “Plasmonic biosensors fabricated by galvanic displacement reactions for monitoring biomolecular interactions in real time” (Analytical and Bioanalytical Chemistry, 2020).
One block for each molecule: values may come before it.

Assays:
[1] = target: Protein A (Staphylococcus aureus) (UniProt P38507); test: LSPR (localized surface plasmon resonance, reflectance spectroscopy); PrA covalently coupled to the nanostructured gold layer via cysteamine/glutardialdehyde; analyte flown over in PBS pH 7.4, 0.57 ml/min; equilibrium shifts of three sensors fitted to a Langmuir isotherm
[2] = target: Protein A (Staphylococcus aureus) (UniProt P38507); test: LSPR (localized surface plasmon resonance, reflectance spectroscopy); PrA physically adsorbed on the nanostructured gold layer; analyte flown over in PBS pH 7.4, 0.57 ml/min; equilibrium shifts of three sensors fitted to a Langmuir isotherm
[3] = target: T1, asialofetuin (UniProt P12763 19-359, glycoprotein presenting terminal galactose residues); test: LSPR (localized surface plasmon resonance, reflectance spectroscopy); ASF physically adsorbed on the nanostructured gold layer; analyte in lectin buffer (10 mM HEPES, 150 mM NaCl, 0.1 mM CaCl2, pH 7.5); equilibrium shifts of three sensors fitted to a Langmuir isotherm; settings: both partners purified
T1 construct: asialofetuin (desialylated fetuin), printed mass 48 kDa; Physically adsorbed on the gold sensor; also called ASF; source: bought: Sigma
T1 sequence (looked up): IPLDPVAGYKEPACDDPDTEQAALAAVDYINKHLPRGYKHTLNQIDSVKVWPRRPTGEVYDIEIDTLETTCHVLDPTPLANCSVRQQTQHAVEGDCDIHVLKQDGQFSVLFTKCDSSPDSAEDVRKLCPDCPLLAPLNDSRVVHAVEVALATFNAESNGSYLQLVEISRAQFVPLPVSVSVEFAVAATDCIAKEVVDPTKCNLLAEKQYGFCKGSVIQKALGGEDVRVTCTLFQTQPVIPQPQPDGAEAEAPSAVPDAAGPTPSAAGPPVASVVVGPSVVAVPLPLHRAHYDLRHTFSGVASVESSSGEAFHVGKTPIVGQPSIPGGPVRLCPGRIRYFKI

Molecule: immunoglobulin G (IgG, 150 kDa) from rabbit (antibody)
Kd [1]: 150 nM | Kd [2]: 140 nM

Kd [3]: 490 nM
B1: Erythrina cristagalli lectin (natural protein, UniProt P83410 1-239, looked up)
chain: VETISFSFSEFEPGNDNLTLQGAALITQSGVLQLTKINQNGMPAWDSTGRTLYTKPVHMWDSTTGTVASFETRFSFSIEQPYTRPLPADGLVFFMGPTKSKPAQGYGYLGVFNNSKQDNSYQTLAVEFDTFSNPWDPPQVPHIGIDVNSIRSIKTQPFQLDNGQVANVVIKYDAPSKILHVVLVYPSSGAIYTIAEIVDVKQVLPDWVDVGLSGATGAQRDAAETHDVYSWSFQASLPE
notes: lectin of the plant Erythrina cristagalli; printed mass 54 kDa; The printed 54 kDa probably means a dimer of the lectin chain; also called ECL; source: bought: Vector Laboratories via BIOZOL Diagnostica
